Measured values as given in US20100015126A1, “Methods of Binding of Cross-Beta Structures By Chaperones” (priority 2006, published 2010).

Experiments:
[1] = target: T1, BiP-Sepharose (Homo sapiens, UniProt P11021); assay: Experiment 2: BiP-Sepharose extraction from six synovial fluid samples of RA patients and mass spectrometry; type: binding; details: BiP-Sepharose eluate, synovial fluid of RA patient
T1 construct: The human BiP gene except the signal peptide encoding region was obtained from Geneart (Germany); linker […]; made in house; host or cells: HEK 293E cells, transient transfection, PABC674 vector; secreted into the medium
Protocol: (§1) Six samples were incubated with the BiP-Sepharose, IgIV-Sepharose and the control-Sepharose: Normal pooled plasma, plasma of a patient I or of a patient II, with AL amyloidosis, serum of a patient III with RA (Rheumatoid Factor (RF) titer 682), control serum and synovial fluid of a patient IV with RA (RF titer 23). All samples were diluted 20× in HBS and applied to 200 μl beads in two volumes of 500 μl. One volume was incubated for 4 h at RT and supernatant was discarded after centrifugation (2 minutes at 1400 rpm). Subsequently, the second volume was applied to the same matrix and incubated overnight on a roller device at 4° C. […] To collect the eluates, the matrices were centrifuged and the two eluates were pooled for each sample.
(§2) Protein digests were desalted as described (Rappsilber et al., 2003), vacuum dried and dissolved in 2.5% formic acid.
(§3) For analysis of peptide mixtures, an Agilent 1100 HPLC system (Agilent Technologies) connected to a Thermo Finnigan LTQ-MS (Thermo Electron, Bremen, Germany) was used. Protein digests were injected on a trap column (Reprosil C18 RP (Dr Maisch, Germany), 20 mm×100 μm I.D.) at 5 μl/minute. Subsequently, the peptides were transferred with a split-reduced flow rate of 100 nL/minute solvent A (0.1 M acetic acid) on the analytical column (Reprosil C18 RP, 20 cm×50 μm I.D.). […] The column effluent was directly introduced into the ESI source of the mass spectrometer via a butt-connected nano-ESI emitter (New Objectives, Woburn, Mass.). The mass spectrometer was operated in the positive ion mode and parent ions were selected for fragmentation in data-dependent mode.
(§4) After mass spectrometric measurements, peak lists were generated using BioWorks software (Thermo Electron, Bremen, Germany). Protein identification was performed using Mascot software (www.matrixscience.com) by searching the IPIhuman database (version 3.24, downloaded from ftp://ftp.ebi.ac.uk/pub/databases/IPI/current) using the following settings: fully tryptic peptides, peptide tolerance 0.8 Da, MS/MS tolerance 0.9 Da, 1 missed cleavage allowed, carbamidomethyl (Cys) and oxidation (Met) as fixed and variable modification, respectively. The Scaffold software package (www.proteomesoftware.com) was used to parse the data and to filter peptides at a confidence level of 95%, allowing only protein identification with at least 2 peptides identified.
Those samples are listed below: • 1. […] One difference when compared to the protocol described above is that now with the twelve samples, elution buffer comprised 1 M NaCl. Again, a misfolded protein or a protein binding to misfolded protein is identified uniquely in the synovial fluid when no or a relatively very low number of fragments are detected in eluates of control-Sepharose.

[2] = target: T1, BiP-Sepharose; assay: BiP-Sepharose extraction of proteins from patient plasma, serum, synovial fluid and mass-spectrometric identification; type: binding; details: compared to AL amyloidosis patient II
Protocol: BiP was coated on CNBr-Sepharose (GE-Healthcare, Amersham Biosciences). Immobilization of BiP was performed essentially as described elsewhere in this application for NHS-Sepharose. CNBr-matrix was dissolved at 200 mg/ml in 1 mM HCl and treated the same as the NHS-matrix, except for an additional 5 minutes activation step in 1 mM HCl on a roller device before washing in this buffer. BiP was diluted in immobilization buffer (50 mM NaCl and 40 mM NaHCO3) to a concentration of 820 μg/ml. A total volume of 2 ml BiP solution (1640 μg BiP) was incubated with 360 mg beads. Negative control matrix was exposed to immobilization buffer, only. After overnight immobilization matrix was blocked with Tris and washed.
as §1, §2, §3, §4

T1 sequence (P11021 19-654): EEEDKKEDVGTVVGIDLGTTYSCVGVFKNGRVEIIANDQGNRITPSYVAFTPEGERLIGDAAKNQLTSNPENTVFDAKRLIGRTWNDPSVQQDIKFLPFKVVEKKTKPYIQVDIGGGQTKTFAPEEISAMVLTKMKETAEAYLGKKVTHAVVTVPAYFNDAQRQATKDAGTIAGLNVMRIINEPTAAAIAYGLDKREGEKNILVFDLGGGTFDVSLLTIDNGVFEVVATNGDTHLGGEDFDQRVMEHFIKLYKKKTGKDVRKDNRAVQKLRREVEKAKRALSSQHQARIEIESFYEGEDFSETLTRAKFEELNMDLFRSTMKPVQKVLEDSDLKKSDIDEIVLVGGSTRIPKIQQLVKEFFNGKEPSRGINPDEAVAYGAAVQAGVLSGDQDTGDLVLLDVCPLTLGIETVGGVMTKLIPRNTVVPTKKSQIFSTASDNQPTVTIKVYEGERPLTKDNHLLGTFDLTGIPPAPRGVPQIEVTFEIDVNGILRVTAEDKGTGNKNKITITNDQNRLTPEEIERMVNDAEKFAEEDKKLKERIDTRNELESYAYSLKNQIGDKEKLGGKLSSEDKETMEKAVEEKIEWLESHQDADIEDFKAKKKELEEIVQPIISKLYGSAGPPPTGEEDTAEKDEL

Molecule | # of unique peptides ([1]; Sample 1B) | # of unique peptides ([1]; Sample 3B) | # of unique peptides ([1]; Sample 5B) | Specific binding to BiP-Sepharose from normal pooled plasma [2] | # of unique peptides ([1]; Sample 2B)
CDNA FLJ14473 fis, clone MAMMA1001080, highly similar to Homo sapiens SNC73 protein (SNC73) mRNA, immunoglobulin heavy constant alpha 1 (protein, UniProt P01876 1-398, looked up) Immunoglobulin heavy constant …: ASPTSPKVFPLSLCSTQPDGNVVIACLVQGFFPQEPLSVTWSESGQGVTARNFPPSQDASGDLYTTSSQLTLPATQCLAGKSVTCHVKHYTNPSQDVTVPCPVPSTPPTPSPSTPPTPSPSCCHPRLSLHRPALEDLLLGSEANLTCTLTGLRDASGVTFTWTPSSGKSAVQGPPERDLCGCYSVSSVLPGCAEPWNHGKTFTCTAAYPESKTPLTATLSKSGNTFRPEVHLLPPPSEELALNELVTLTCLARGFSPKDVLVRWLQGSQELPREKYLTWASRQEPSQGTTTFAVTSILRVAAEDWKKGDTFSCMVGHEALPLAFTQKTIDRLADWQMPPPYVVLDLPQETLEEETPGANLWPTTITFLTLFLLSLFYSTALTVTSVRGPSGNREGPQY | 2 | 1 | 1 | – | –
Galectin-3-binding protein precursor (protein) VNDGDMRLADGGATNQGRVEIFYRGQWGTVCDNLWDLTDASVVCRALGFENATQALGRAAFGQGSGPIMLDEVQCTGTEASLADCKSLGWLKSNCRHERDAGVVCTNETRSTHTLDLSRELSEALGQIFDSQRGCDLSISVNVQGEDALGFCGHTVILTANLEAQALWKEPGSNVTMSVDAECVPMVRDLLRYFYSRRIDITLSSVKCFHKLASAYGARQLQGYCASLFAILLPQDPSFQMPLDLYAYAVATGDALLEKLCLQFLAWNFEALTQAEAWPSVPTDLLQLLLPRSDLAVPSELALLKAVDTWSWGERASHEEVEGLVEKIRFPMMLPEELFELQFNLSLYWSHEALFQKKTLQALEFHTVPFQLLARYKGLNLTEDTYKPRIYTSPTWSAFVTDSSWSARKSQLVYQSRRGPLVKYSSDYFQAPSDYRYYPYQSFQTPQHPSFLFQDKRVSWSLVYLPTIQSCWNYGFSCSSDELPVLGLTKSGGSDRTIAYENKALMLCEGLFVADVTDFEGWKAAIPSALDTNSSKSTSSFPCPAGHFNGFRTVIRPFYLTNSSGVD | 1 | 1 | – | – | –
complement C4a (protein, UniProt P0C0L4 680-756, looked up, C4a anaphylatoxin) C4a anaphylatoxin: NVNFQKAINEKLGQYASPTAKRCCQDGVTRLPMMRSCEQRAARVQQPDCREPFLSCCQFAESLRKKSRDKGQAGLQR | – | – | – | specifically bound | –
Histidine-rich glycoprotein precursor (protein) VSPTDCSAVEPEAEKALDLINKRRRDGYLFQLLRIADAHLDRVENTTVYYLVLDVQESDCSVLSRKYWNDCEPPDSRRPSEIVIGQCKVIATRHSHESQDLRVIDFNCTTSSVSSALANTKDSPVLIDFFEDTERYRKQANKALEKYKEENDDFASFRVDRIERVARVRGGEGTGYFVDFSVRNCPRHHFPRHPNVFGFCRADLFYDVEALDLESPKNLVINCEVFDPQEHENINGVPPHLGHPFHWGGHERSSTTKPPFKPHGSRDHHHPHKPHEHGPPPPPDERDHSHGPPLPQGPPPLLPMSCSSCQHATFGTNGAQRHSHNNNSSDLHPHKHHSHEQHPHGHHPHAHHPHEHDTHRQHPHGHHPHGHHPHGHHPHGHHPHGHHPHCHDFQDYGPCDPPPHNQGHCCHGHGPPPGHLRRRGPGKGPRPFHCRQIGSVYRLPPLRKGEVLPLPEANFPSFPLPHHKHPLKPDNQPFPQSVSESCPGKFKSGFPQVSMFFTHTFPK | 2 | – | 1 | – | 1
Apolipoprotein A-IV precursor (protein) EVSADQVATVMWDYFSQLSNNAKEAVEHLQKSELTQQLNALFQDKLGEVNTYAGDLQKKLVPFATELHERLAKDSEKLKEEIGKELEELRARLLPHANEVSQKIGDNLRELQQRLEPYADQLRTQVSTQAEQLRRQLTPYAQRMERVLRENADSLQASLRPHADELKAKIDQNVEELKGRLTPYADEFKVKIDQTVEELRRSLAPYAQDTQEKLNHQLEGLTFQMKKNAEELKARISASAEELRQRLAPLAEDVRGNLRGNTEGLQKSLAELGGHLDQQVEEFRRRVEPYGENFNKALVQQMEQLRQKLGPHAGDVEGHLSFLEKDLRDKVNSFFSTFKEKESQDKTLSLPELEQQQEQQQEQQQEQVQMLAPLES | 3 | – | – | – | –
IGHM protein, immunoglobulin heavy constant gamma 2 (protein) ASTKGPSVFPLAPCSRSTSESTAALGCLVKDYFPEPVTVSWNSGALTSGVHTFPAVLQSSGLYSLSSVVTVPSSNFGTQTYTCNVDHKPSNTKVDKTVERKCCVECPPCPAPPVAGPSVFLFPPKPKDTLMISRTPEVTCVVVDVSHEDPEVQFNWYVDGVEVHNAKTKPREEQFNSTFRVVSVLTVVHQDWLNGKEYKCKVSNKGLPAPIEKTISKTKGQPREPQVYTLPPSREEMTKNQVSLTCLVKGFYPSDISVEWESNGQPENNYKTTPPMLDSDGSFFLYSKLTVDKSRWQQGNVFSCSVMHEALHNHYTQKSLSLSPGK | 1 | – | – | – | 1
IGHM protein, immunoglobulin heavy chain mu (heavy chain disease protein) (protein) GSASAPTLFPLVSCENSPSDTSSVAVGCLAQDFLPDSITFSWKYKNNSDISSTRGFPSVLRGGKYAATSQVLLPSKDVMQGTDEHVVCKVQHPNGNKEKNVPLPVIAELPPKVSVFVPPRDGFFGNPRKSKLICQATGFSPRQIQVSWLREGKQVGSGVTTDQVQAEAKESGPTTYKVTSTLTIKESDWLGQSMFTCRVDHRGLTFQQNASSMCVPDQDTAIRVFAIPPSFASIFLTKSTKLTCLVTDLTTYDSVTISWTRQNGEAVKTHTNISESHPNATFSAVGEASICEDDWNSGERFTCTVTHTDLPSPLKQTISRPKGVALHRPDVYLLPPAREQLNLRESATITCLVTGFSPADVFVQWMQRGQPLSPEKYVTSAPMPEPQAPGRYFAHSILTVSEEEWNTGETYTCVVAHEALPNRVTERTVDKSTGKPTLYNVSLVMSDTAGTCY | 3 | 1 | – | – | –
FLJ00385 protein (Fragment), immunoglobulin heavy constant mu (protein) GSASAPTLFPLVSCENSPSDTSSVAVGCLAQDFLPDSITFSWKYKNNSDISSTRGFPSVLRGGKYAATSQVLLPSKDVMQGTDEHVVCKVQHPNGNKEKNVPLPVIAELPPKVSVFVPPRDGFFGNPRKSKLICQATGFSPRQIQVSWLREGKQVGSGVTTDQVQAEAKESGPTTYKVTSTLTIKESDWLGQSMFTCRVDHRGLTFQQNASSMCVPDQDTAIRVFAIPPSFASIFLTKSTKLTCLVTDLTTYDSVTISWTRQNGEAVKTHTNISESHPNATFSAVGEASICEDDWNSGERFTCTVTHTDLPSPLKQTISRPKGVALHRPDVYLLPPAREQLNLRESATITCLVTGFSPADVFVQWMQRGQPLSPEKYVTSAPMPEPQAPGRYFAHSILTVSEEEWNTGETYTCVVAHEALPNRVTERTVDKSTGKPTLYNVSLVMSDTAGTCY | 1 | 2 | – | – | 1
